# According to publication PMC7814660 (Nature, 2020):
# Positions count from the first letter of the chain named. In names and notes the source's numbering stands.
# B1: Pannexin 1 (hsPANX1): N255A (protein)
# parent chain: MAIAQLATEYVFSDFLLKEPTEPKFKGLRLELAVDKMVTCIAVGLPLLLISLAFAQEISIGTQISCFSPSSFSWRQAAFVDSYCWAAVQQKNSLQSESGNLPLWLHKFFPYILLLFAILLYLPPLFWRFAAAPHICSDLKFIMEELDKVYNRAIKAAKSARDLDMRDGACSVPGVTENLGQSLWEVSESHFKYPIVEQYLKTKKNSNNLIIKYISCRLLTLIIILLACIYLGYYFSLSSLSDEFVCSIKSGILRNDSTVPDQFQCKLIAVGIFQLLSVINLVVYVLLAPVVVYTLFVPFRQKTDVLKVYEILPTFDVLHFKSEGYNDLSLYNLFLEENISEVKSYKCLKVLENIKSSGQGIDPMLLLTNLGMIKMDVVDGKTPMSAEMREEQGNQTAELQGMNIDSETKANNGEKNARQRLLDSSC
# B2: wild type human Pannexin 1 (wt-hsPANX1) (natural protein, UniProt Q96RD7 1-426, looked up)
# chain: B1 parent chain
# modifications: N-glycosylated at N255 (N-acetylglucosamine modelled)
# B3: caspase 7-cleaved human Pannexin 1 (ΔCTT-hsPANX1) (domain or fragment, UniProt Q96RD7 1-379, looked up)
# chain: MAIAQLATEYVFSDFLLKEPTEPKFKGLRLELAVDKMVTCIAVGLPLLLISLAFAQEISIGTQISCFSPSSFSWRQAAFVDSYCWAAVQQKNSLQSESGNLPLWLHKFFPYILLLFAILLYLPPLFWRFAAAPHICSDLKFIMEELDKVYNRAIKAAKSARDLDMRDGACSVPGVTENLGQSLWEVSESHFKYPIVEQYLKTKKNSNNLIIKYISCRLLTLIIILLACIYLGYYFSLSSLSDEFVCSIKSGILRNDSTVPDQFQCKLIAVGIFQLLSVINLVVYVLLAPVVVYTLFVPFRQKTDVLKVYEILPTFDVLHFKSEGYNDLSLYNLFLEENISEVKSYKCLKVLENIKSSGQGIDPMLLLTNLGMIKMDVVD
# B4: glycosylation-deficient mutant N255A of human Pannexin 1 (N255A-hsPANX1) (natural protein, UniProt Q96RD7 1-426, looked up)
# chain: B1 parent chain with N255A
# Experiments:
# [1] = cryo-EM structure superimposition of subunits; conditions: glycan lost; control: wild type
# [2] = whole-cell patch clamp, CBX-sensitive current density, +80 mV; conditions: glycan lost; control: wild type
# cryo-EM structure [3] = target: the molecule itself; assay: cryo-EM structure
# cryo-EM structure [4] = target: the molecule itself; assay: cryo-EM structure; remark: listed apart in the source
protein,measurement,setting,value
B1,structure_or_conformation,[1],changes
same,other: channel current,[2],changes
B2,stoichiometry N,cryo-EM structure [3],7
B3,binding result,cryo-EM structure [3],binds
B4,ratio of gap junctions to hemichannels,cryo-EM structure [4],~0.2 gap junctions : hemichannels
